Results on six molecules are retold here after paper PMC12342889, “Deciphering the RNA recognition by Musashi-1 to design protein and RNA variants for in vitro and in vivo applications”.

In data set [1] the target is MSI-1 RRM2 (Homo sapiens, UniProt O43347 104-200). As to the kind of experiment: SPR; 1:1 model; NMR: 50 mM Tris-HCl, 140 mM NaCl, 1 mM EDTA, 1 mM protease inhibitors, pH 7.2 (RRM1: pH 7.5), 298 K; fluorescence quenching: 50 mM Tris pH 7.2, 140 mM NaCl, 1 mM EDTA; SPR: biotinylated RNA immobilised, buffer not in the material. Conditions: protein: recombinant, label: biotin for SPR. For orientation: In SPR one partner is held on a chip, and binding of the other changes the refractive index at the surface.
Sequence of MSI-1 RRM2 (O43347 104-200): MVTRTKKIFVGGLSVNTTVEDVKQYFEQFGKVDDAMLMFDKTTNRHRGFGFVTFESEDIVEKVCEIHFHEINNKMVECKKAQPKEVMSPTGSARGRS

Data set [2] concerns the target MSI-1 RRM1 (Homo sapiens, UniProt O43347 1-103). The data set is described as above. Conditions: protein: recombinant, label: biotin for SPR.
In data set [3] the target is MSI-1 RRM2-M2 (Homo sapiens, UniProt O43347 104-200, K182M). The data set is described as follows: SPR; NMR: 50 mM Tris-HCl, 140 mM NaCl, 1 mM EDTA, 1 mM protease inhibitors, pH 7.2 (RRM1: pH 7.5), 298 K; fluorescence quenching: 50 mM Tris pH 7.2, 140 mM NaCl, 1 mM EDTA; SPR: biotinylated RNA immobilised, buffer not in the material. Particulars: protein: recombinant, label: biotin for SPR.
Sequence of MSI-1 RRM2-M2 (O43347 104-200 K182M): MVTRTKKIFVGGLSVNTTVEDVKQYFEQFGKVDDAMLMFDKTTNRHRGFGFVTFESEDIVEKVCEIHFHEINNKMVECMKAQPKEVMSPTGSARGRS

The target in data set [4] is MSI-1 RRM2-M1 (Homo sapiens, UniProt O43347 104-200, E180N). The data set is described as above. Conditions: protein: recombinant, label: biotin for SPR.
Sequence of MSI-1 RRM2-M1 (O43347 104-200 E180N): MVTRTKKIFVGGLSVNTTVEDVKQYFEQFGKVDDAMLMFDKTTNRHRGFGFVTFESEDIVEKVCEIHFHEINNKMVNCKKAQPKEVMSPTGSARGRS
Data set [5] concerns the target T1, MSI-1 RRM1-2 DM (Homo sapiens, UniProt O43347 1-200, E180N;K182M). The data set is described as follows: SPR; KD1 monovalent; NMR: 50 mM Tris-HCl, 140 mM NaCl, 1 mM EDTA, 1 mM protease inhibitors, pH 7.2 (RRM1: pH 7.5), 298 K; fluorescence quenching: 50 mM Tris pH 7.2, 140 mM NaCl, 1 mM EDTA; SPR: biotinylated RNA immobilised, buffer not in the material. Particulars: protein: recombinant; label: biotin for SPR; unlabelled for NMR; single strand.

In data set [6] the target is T2, MSI-1 RRM1-2 (Homo sapiens, UniProt O43347 1-200). As to the kind of experiment: SPR; KD1 monovalent, 1:2 model; NMR: 50 mM Tris-HCl, 140 mM NaCl, 1 mM EDTA, 1 mM protease inhibitors, pH 7.2 (RRM1: pH 7.5), 298 K; fluorescence quenching: 50 mM Tris pH 7.2, 140 mM NaCl, 1 mM EDTA; SPR: biotinylated RNA immobilised, buffer not in the material. Conditions: protein: recombinant, label: biotin for SPR, unlabelled for NMR.
T2 sequence (O43347 1-200): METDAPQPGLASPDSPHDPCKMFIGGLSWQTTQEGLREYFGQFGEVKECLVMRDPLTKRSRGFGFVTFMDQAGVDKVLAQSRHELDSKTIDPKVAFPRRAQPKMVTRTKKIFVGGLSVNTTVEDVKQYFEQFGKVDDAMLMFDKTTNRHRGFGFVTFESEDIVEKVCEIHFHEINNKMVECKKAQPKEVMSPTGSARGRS

Data set [7] has as its target T1, MSI-1 RRM1-2 DM. As to the kind of experiment: NMR; more than one species; NMR: 50 mM Tris-HCl, 140 mM NaCl, 1 mM EDTA, 1 mM protease inhibitors, pH 7.2 (RRM1: pH 7.5), 298 K; fluorescence quenching: 50 mM Tris pH 7.2, 140 mM NaCl, 1 mM EDTA; SPR: biotinylated RNA immobilised, buffer not in the material. Particulars: protein: recombinant; label: biotin for SPR; unlabelled for NMR; hairpin.

Data set [8] addresses T1, MSI-1 RRM1-2 DM. As to the kind of experiment: SPR; KD1 monovalent, 1:2 model; NMR: 50 mM Tris-HCl, 140 mM NaCl, 1 mM EDTA, 1 mM protease inhibitors, pH 7.2 (RRM1: pH 7.5), 298 K; fluorescence quenching: 50 mM Tris pH 7.2, 140 mM NaCl, 1 mM EDTA; SPR: biotinylated RNA immobilised, buffer not in the material. Particulars: protein: recombinant; label: biotin for SPR; unlabelled for NMR; single strand.

Data set [9] has as its target T1, MSI-1 RRM1-2 DM. The data set is described as follows: SPR; KD1 monovalent; 1:1 model at low RNA density; NMR: 50 mM Tris-HCl, 140 mM NaCl, 1 mM EDTA, 1 mM protease inhibitors, pH 7.2 (RRM1: pH 7.5), 298 K; fluorescence quenching: 50 mM Tris pH 7.2, 140 mM NaCl, 1 mM EDTA; SPR: biotinylated RNA immobilised, buffer not in the material. Conditions: protein: recombinant; label: biotin for SPR; single strand.

Data set [10] has as its target T2, MSI-1 RRM1-2. The data set is described as follows: SPR; KD1 monovalent; bivalent part negligible; NMR: 50 mM Tris-HCl, 140 mM NaCl, 1 mM EDTA, 1 mM protease inhibitors, pH 7.2 (RRM1: pH 7.5), 298 K; fluorescence quenching: 50 mM Tris pH 7.2, 140 mM NaCl, 1 mM EDTA; SPR: biotinylated RNA immobilised, buffer not in the material. Particulars: protein: recombinant; label: biotin for SPR; single strand.

The mark [11] stands for this setting: unlabelled for NMR, single strand.

T1 sequence (O43347 1-200 E180N/K182M): as the sequence (O43347 1-200) above, with E180N, K182M counted along it
Sequence of MSI-1 RRM1 (O43347 1-103): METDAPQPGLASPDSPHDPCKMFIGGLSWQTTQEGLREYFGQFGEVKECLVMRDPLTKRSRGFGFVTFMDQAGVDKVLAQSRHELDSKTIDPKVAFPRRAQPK

B1: oligo-L3.2 (ssRNA)
RNA: UUGAUAGUUAGCAGGU
Regarding B1, the Kd stood at 44.5 ± 4.5 nM in data set [1] (setting [11]); 85.6 ± 7.4 nM in [2] (setting [11]); 88.5 ± 1.25 nM in [3] (setting [11]); 49.8 ± 11.4 nM in [4] (setting [11]); 98.5 ± 6.9 nM in [5]; 144 ± 15 nM in [6] (single strand).

B2: oligo-L3 (ssRNA)
RNA: UUGUUAGUUAUUAGUU
For B2, the Kd in data set [1] (setting [11]) was 81.6 ± 2 nM; in data set [2] (setting [11]), 153 ± 8.6 nM; in [3] (setting [11]), 64.5 ± 4.1 nM; in data set [4] (setting [11]) it was 74.8 ± 9.3 nM; in data set [5], 98.5 ± 4.8 nM; in data set [6] (single strand), 248 ± 8.5 nM.

B3: oligo-HP4 (structured_RNA)
RNA: AAGCGUUAGUUAUUUAGUCGCUU
With B3, the Kd in data set [1] (unlabelled for NMR, hairpin) is 37.2 ± 2.4 nM; in data set [2] (unlabelled for NMR, hairpin), 21.9 ± 2.7 nM; in data set [3] (unlabelled for NMR, hairpin), 39.1 ± 15 nM; in data set [4] (unlabelled for NMR, hairpin), 14.1 ± 2.5 nM; in [6] (hairpin), 76.8 ± 5.9 nM. The binding result in data set [7] was “binds”.

B4: oligo-L2 (ssRNA)
RNA: UUGUUAGUUACCCCUU
As for B4, the Kd in data set [1] (setting [11]) was found to be 25 ± 3.6 nM; in [2] (setting [11]), 47.1 ± 0.7 nM; in [3] (setting [11]), 108 ± 10.2 nM; in [4] (setting [11]), 35.5 ± 3.6 nM; in data set [6] (single strand), 57.6 ± 12.9 nM; in data set [8], 104 ± 9.5 nM.

B5: oligo-L2.1 (ssRNA)
RNA: UUGUCAGUUACCCCUU
As to B5, the Kd in data set [1] (single strand) worked out at 123 ± 7.8 nM; in data set [2] (single strand) it was 151 ± 16.9 nM; in data set [9], 67 ± 20.4 nM; in data set [3] (single strand) it was 62.9 ± 11 nM; in data set [4] (single strand) it was 58.6 ± 3.6 nM; in [10] it was 218 ± 27.5 nM.

B6: oligo-HP5 (structured_RNA)
RNA: CACUCUGUAGUAUGUAGGGUUUAUUU
Take B6: the Kd in data set [1] (unlabelled for NMR, hairpin) is 26.4 ± 1.6 nM; in data set [2] (unlabelled for NMR, hairpin), 32.8 ± 5.2 nM; in data set [3] (unlabelled for NMR, hairpin) it was 14.5 ± 3 nM; in data set [4] (unlabelled for NMR, hairpin) it was 14.5 ± 0.8 nM; in data set [6] (hairpin), 48.6 ± 5.6 nM.
